Measurements published in article PMC5727935, “The distinctive cell division interactome of Neisseria gonorrhoeae” (BMC Microbiology, 2017).

Legend:
[1] = target: N. gonorrhoeae FtsK, bacterial two-hybrid fusion (Neisseria gonorrhoeae CH811); experiment: two-hybrid; bacterial two-hybrid (Di Lallo): fusions to P22 and 434 repressor ends in E. coli R721, 34 °C; residual β-galactosidase activity against R721 without plasmids (2504 ± 34 Miller units); less than 50% counts as a positive interaction
[2] = target: N. gonorrhoeae FtsW, bacterial two-hybrid fusion (Neisseria gonorrhoeae CH811) (UniProt B4RQC6); experiment: as above
[3] = target: the molecule itself; experiment: 90° light scattering + negative-stain electron microscopy; FtsZNg about 6 μM in MES buffer (50 mM MES-NaOH, 50 mM KCl, 10 mM MgCl2, pH 7.5), 2 mM GTP, 30 °C; polymerisation
[4] = target: His-FtsANg (Neisseria gonorrhoeae CH811) (UniProt Q5F6M2); experiment: SPR; FtsANg immobilised on the HTE chip; polymerized FtsZNg (with GTP) at 6 and 12 μM injected for 120 s, 300 s dissociation; MES buffer with 0.1% BSA, 0.05% Tween-20, 1 mM ATP, pH 7.5; Langmuir 1:1 kinetic fit
[5] = target: T1, N. gonorrhoeae FtsW, bacterial two-hybrid fusion (Neisseria gonorrhoeae CH811, UniProt B4RQC6 1-462); experiment: two-hybrid; bacterial two-hybrid (Di Lallo): fusions to P22 and 434 repressor ends in E. coli R721, 34 °C; residual β-galactosidase activity against R721 without plasmids (2504 ± 34 Miller units); less than 50% counts as a positive interaction; conditions: partners not purified
T1 construct: FtsW of Neisseria gonorrhoeae CH811, amplified from genomic DNA with primers P9/P10 (start codon to stop codon); Cloned in both vectors (pcIp22 and pcI434); each fusion carries one of the two repressor ends; also called FtsWNg; pcIp22-W; source: bacterial two-hybrid fusion, expressed in E. coli R721
T1 sequence (looked up): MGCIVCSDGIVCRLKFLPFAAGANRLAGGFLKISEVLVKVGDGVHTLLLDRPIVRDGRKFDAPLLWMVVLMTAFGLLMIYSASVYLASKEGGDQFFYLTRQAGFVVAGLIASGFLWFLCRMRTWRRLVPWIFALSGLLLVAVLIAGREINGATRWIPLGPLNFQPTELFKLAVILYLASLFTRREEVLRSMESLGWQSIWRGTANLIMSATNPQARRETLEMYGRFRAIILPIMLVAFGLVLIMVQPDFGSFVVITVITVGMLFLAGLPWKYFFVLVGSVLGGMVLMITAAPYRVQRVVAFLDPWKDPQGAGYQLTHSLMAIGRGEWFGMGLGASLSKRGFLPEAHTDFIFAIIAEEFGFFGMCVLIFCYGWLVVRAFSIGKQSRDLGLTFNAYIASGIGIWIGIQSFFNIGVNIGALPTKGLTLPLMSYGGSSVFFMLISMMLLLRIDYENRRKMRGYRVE

[6] = target: N. gonorrhoeae FtsN, bacterial two-hybrid fusion (Neisseria gonorrhoeae CH811); experiment: as above
[7] = target: N. gonorrhoeae FtsZ, bacterial two-hybrid fusion (Neisseria gonorrhoeae) (UniProt P72079); experiment: as above
[8] = target: T2, N. gonorrhoeae FtsQ, bacterial two-hybrid fusion (Neisseria gonorrhoeae CH811, UniProt Q5F6M1 1-242); experiment: as above; conditions: partners not purified
T2 construct: FtsQ of Neisseria gonorrhoeae CH811, amplified from genomic DNA with primers P5/P6 (start codon to stop codon); Cloned in both vectors (pcIp22 and pcI434); each fusion carries one of the two repressor ends; also called FtsQNg; pcIp22-Q; source: bacterial two-hybrid fusion, expressed in E. coli R721
T2 sequence (looked up): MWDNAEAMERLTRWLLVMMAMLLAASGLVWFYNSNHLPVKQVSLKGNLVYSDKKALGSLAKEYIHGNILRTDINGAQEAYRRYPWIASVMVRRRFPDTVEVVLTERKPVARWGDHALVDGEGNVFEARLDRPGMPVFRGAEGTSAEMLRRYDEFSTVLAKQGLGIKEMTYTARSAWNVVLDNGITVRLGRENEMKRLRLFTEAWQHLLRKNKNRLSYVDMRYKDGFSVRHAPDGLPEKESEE

[9] = target: His-FtsNNg (ligand of the SPR) (Neisseria gonorrhoeae); experiment: SPR; Bio-Rad XPR36, ProteOn HTE chip activated with NiSO4; His-FtsQNg or His-FtsNNg immobilised at 200 nM; two-fold dilutions of FtsANg in PBST (0.1% BSA, 0.05% Tween-20, pH 7.9), 30 μl/min, 120 s, then 300 s buffer; Langmuir 1:1 kinetic fit
[10] = target: T3, FtsANg (analyte of the SPR with FtsQNg and FtsNNg) (Neisseria gonorrhoeae CH811, UniProt Q5F6M2 1-414); experiment: as above; conditions: both partners purified
T3 construct: FtsA of Neisseria gonorrhoeae CH811; GST in PBST as the negative-control analyte hints at GST-FtsANg (surmise); source: E. coli C41 (DE3), purified
T3 sequence (looked up): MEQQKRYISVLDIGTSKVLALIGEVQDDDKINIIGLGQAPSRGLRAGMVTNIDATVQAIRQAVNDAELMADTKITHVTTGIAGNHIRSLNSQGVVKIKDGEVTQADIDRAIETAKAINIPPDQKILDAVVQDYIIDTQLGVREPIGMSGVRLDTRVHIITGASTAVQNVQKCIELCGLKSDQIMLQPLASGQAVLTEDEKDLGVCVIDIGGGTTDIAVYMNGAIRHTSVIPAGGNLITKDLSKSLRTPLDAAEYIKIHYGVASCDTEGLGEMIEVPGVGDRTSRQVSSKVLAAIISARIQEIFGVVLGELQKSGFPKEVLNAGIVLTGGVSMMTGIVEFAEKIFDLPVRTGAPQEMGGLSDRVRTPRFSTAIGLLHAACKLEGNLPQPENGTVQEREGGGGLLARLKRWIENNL

“N. gonorrhoeae FtsN, bacterial two-hybrid fusion (natural protein)” showed a residual β-galactosidase activity [1] of 31%.

Work on “N. gonorrhoeae FtsI, bacterial two-hybrid fusion (natural protein)” yielded a residual β-galactosidase activity [2] of 35%.

B1: FtsZNg, His tag cleaved with thrombin (natural protein, Neisseria gonorrhoeae CH811, UniProt P72079 1-392, looked up)
chain: MEFVYDVAESAVSPAVIKVIGLGGGGCNAINNMVANNVRSVEFISANTDAQSLAKNHAAKRIQLGTNLTRGLGAGANPDIGRAAAQEDREAIEEAIRGANMLFITTGMGGGTGTGSAPVVAEIAKSLGILTVAVVTRPFSYEGKRVHVAQAGLEQLKEHVDSLIIIPNDKLMTALGEDVTMREAFRAADNVLRDAVAGISEVVTCPSEIINLDFADVKTVMSNRGIAMMGSGYAQGIDRARMATDQAISSPLLDDVTLDGARGVLVNITTAPGCLKMSELSEVMKIVNQSAHPDLECKFGAAEDETMSEDAIRITIIATGLKEKGAVDPTPEREVEAVAPSKQEQSHIVEGMIRTNRGIRTMNLTAADFDNQSVLDDFEIPAILRRQHNSDK
notes: FtsZ of Neisseria gonorrhoeae CH811, full-length ftsZ (primers P19/P20) cloned BglII/EcoRI into pET30a; also called polymerized FtsZNg; not shown: His6, N-terminal, cleaved
For B1, the binding result [3] was “binds”, the Kd [4] was 14900 nM and the koff [4] was 0.00531 s⁻¹. It also gave a kon [4] of 356 M⁻¹ s⁻¹.

B2: N. gonorrhoeae FtsZ, bacterial two-hybrid fusion (natural protein, Neisseria gonorrhoeae, UniProt P72079 1-392, looked up)
chain: B1 chain
notes: FtsZ of Neisseria gonorrhoeae; Cloned in both vectors (pcIp22 and pcI434); each fusion carries one of the two repressor ends; also called FtsZNg; pcIp22-Z; source: bacterial two-hybrid fusion, expressed in E. coli R721
With B2 the residual β-galactosidase activity [1] was 41% and the “residual β-galactosidase activity” value [5] was 39%.

B3: N. gonorrhoeae FtsA, bacterial two-hybrid fusion (natural protein, Neisseria gonorrhoeae CH811, UniProt Q5F6M2 1-414, looked up)
chain: T3 sequence (looked up)
notes: FtsA of Neisseria gonorrhoeae CH811, amplified from genomic DNA with primers P1/P2 (start codon to stop codon); ends at Leu414 by the limits of the truncations; Cloned in both vectors (pcIp22 and pcI434); each fusion carries one of the two repressor ends; also called FtsANg; pcIp22-A; source: bacterial two-hybrid fusion, expressed in E. coli R721
B3 gave a residual β-galactosidase activity [1] of 30%, a residual β-galactosidase activity [6] of 24% and a residual β-galactosidase activity [7] of 40%. The “residual β-galactosidase activity” value [8] was 48% and the “residual β-galactosidase activity” value [5] was 45%.

B4: FtsANg (analyte of the SPR with FtsQNg and FtsNNg) (natural protein)
chain: T3 sequence (looked up)
With B4 the Kd [9] was 53.3 nM, the koff [9] was 0.00616 s⁻¹ and the kon [9] was 115000 M⁻¹ s⁻¹.

B5: His-FtsQNg (natural protein, Neisseria gonorrhoeae CH811, UniProt Q5F6M1 1-242, looked up)
chain: T2 sequence (looked up)
notes: FtsQ of Neisseria gonorrhoeae CH811, full-length ftsQ (primers P17/P18) cloned BglII/EcoRI into pET30a; also called pETQ
B5 gave a Kd [10] of 15.1 nM, a koff [10] of 0.00409 s⁻¹ and a kon [10] of 272000 M⁻¹ s⁻¹.
